Series [1] deals with the molecule itself. The series can be described thus: mass photometry.
Series [2] concerns the molecule itself. Kind of series: mass photometry. This is another data set of the same source.

B1: N-terminally extended IRF7 isoform (exIRF7, intron 1 retained) with C-terminal 3xFLAG tag (natural protein, human, UniProt Q92985-4 1-516, looked up)
chain: MPVPERPAAGPDSPRPGTRRAAPRVLFGEWLLGEISSGCYEGLQWLDEARTCFRVPWKHFARKDLSEADARIFKAWAVARGRWPPSSRGGGPPPEAETAERAGWKTNFRCALRSTRRFVMLRDNSGDPADPHKVYALSRELCWREGPGTDQTEAEAPAAVPPPQGGPPGPFLAHTHAGLQAPGPLPAPAGDKGDLLLQAVQQSCLADHLLTASWGADPVPTKAPGEGQEGLPLTGACAGGPGLPAGELYGWAVETTPSPGPQPAALTTGEAAAPESPHQAEPYLSPSPSACTAVQEPSPGALDVTIMYKGRTVLQKVVGHPSCTFLYGPPDPAVRATDPQQVAFPSPAELPDQKQLRYTEELLRHVAPGLHLELRGPQLWARRMGKCKVYWEVGGPPGSASPSTPACLLPRNCDTPIFDFRVFFQELVEFRARQRRGSPRYTIYLGFGQDLSAGRPKEKSLVLVKLEPWLCRVHLEGTQREGVSSLDSSSLSLCLSSANSLYDDIECFLMELEQPA
modifications: phosphorylated (sites not given)
A word on the stoichiometry N: it is a count of units in the complex or per binding partner. For the protein B1, the “fold tighter Kd of dimerization than cIRF7” value in the series “mass photometry [1]” is approximately 6 fold. Moreover, the “stoichiometry N” value in “mass photometry [2]” came to 2.

These data come from paper PMC12401477 (Cell reports, 2025).
